The values below come from PMC10415141 (Nucleic Acids Research, 2023).

This assay deals with T1, human MCM8 (HsMCM8), wild type, N-terminal StrepII tag and TEV site (human, UniProt Q9UJA3 1-840).
T1 sequence (looked up): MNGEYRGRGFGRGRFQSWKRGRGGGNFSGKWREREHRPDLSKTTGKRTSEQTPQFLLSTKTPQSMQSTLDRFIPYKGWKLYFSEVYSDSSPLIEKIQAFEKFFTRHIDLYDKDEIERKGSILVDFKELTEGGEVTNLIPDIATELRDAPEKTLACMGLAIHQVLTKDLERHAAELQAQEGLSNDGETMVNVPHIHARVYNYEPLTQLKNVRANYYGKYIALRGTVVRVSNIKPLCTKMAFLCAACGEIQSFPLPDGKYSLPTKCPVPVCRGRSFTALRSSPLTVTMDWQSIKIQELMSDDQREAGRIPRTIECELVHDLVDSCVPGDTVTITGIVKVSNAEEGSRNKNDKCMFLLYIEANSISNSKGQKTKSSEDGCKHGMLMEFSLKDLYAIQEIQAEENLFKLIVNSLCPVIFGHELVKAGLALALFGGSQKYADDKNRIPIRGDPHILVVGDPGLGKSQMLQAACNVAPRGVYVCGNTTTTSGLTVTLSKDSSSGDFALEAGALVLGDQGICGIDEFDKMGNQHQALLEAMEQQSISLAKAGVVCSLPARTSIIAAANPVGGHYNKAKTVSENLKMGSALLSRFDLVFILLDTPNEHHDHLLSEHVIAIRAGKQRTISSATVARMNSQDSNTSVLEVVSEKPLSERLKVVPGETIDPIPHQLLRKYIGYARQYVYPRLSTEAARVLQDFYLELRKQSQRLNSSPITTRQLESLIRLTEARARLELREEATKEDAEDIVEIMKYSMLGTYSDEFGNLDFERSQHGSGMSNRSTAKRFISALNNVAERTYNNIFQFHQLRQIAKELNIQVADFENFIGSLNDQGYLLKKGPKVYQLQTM
Nature of the assay: SEC.

B1: human MCM9 truncated to the first 680 amino acids (MCM9^680), wild type, N-terminal 6xHis tag (domain or fragment)
chain: not shown
On to B1, for which the “stoichiometry N” value was determined as 1.
